For assay [1], the target named is full-length human dynein complex (heavy chain with SNAP-tag, IC, LIC, Tctex, LC8, Robl) (human) (UniProt Q14204).
Assay [2] has as its target tail-truncated single-headed human dynein (amino acids 1320-4646 of DYNC1H1), N-terminal GFP (human) (UniProt Q14204).
The target in assay [3] is full-length human dynein complex (heavy chain with SNAP-tag, IC, LIC, Tctex, LC8, Robl) (human) (UniProt Q14204). Nature of the assay: single-molecule TIRF microscopy; 10 nM JIP3 (Halo-JF646) on surface-attached MTs, without or with 1 nM dynein; dwell time of JIP3 on MT-bound dynein.

tail-truncated single-headed human dynein (amino acids 1320-4646 of DYNC1H1), N-terminal GFP (human), sequence (Q14204 1320-4646): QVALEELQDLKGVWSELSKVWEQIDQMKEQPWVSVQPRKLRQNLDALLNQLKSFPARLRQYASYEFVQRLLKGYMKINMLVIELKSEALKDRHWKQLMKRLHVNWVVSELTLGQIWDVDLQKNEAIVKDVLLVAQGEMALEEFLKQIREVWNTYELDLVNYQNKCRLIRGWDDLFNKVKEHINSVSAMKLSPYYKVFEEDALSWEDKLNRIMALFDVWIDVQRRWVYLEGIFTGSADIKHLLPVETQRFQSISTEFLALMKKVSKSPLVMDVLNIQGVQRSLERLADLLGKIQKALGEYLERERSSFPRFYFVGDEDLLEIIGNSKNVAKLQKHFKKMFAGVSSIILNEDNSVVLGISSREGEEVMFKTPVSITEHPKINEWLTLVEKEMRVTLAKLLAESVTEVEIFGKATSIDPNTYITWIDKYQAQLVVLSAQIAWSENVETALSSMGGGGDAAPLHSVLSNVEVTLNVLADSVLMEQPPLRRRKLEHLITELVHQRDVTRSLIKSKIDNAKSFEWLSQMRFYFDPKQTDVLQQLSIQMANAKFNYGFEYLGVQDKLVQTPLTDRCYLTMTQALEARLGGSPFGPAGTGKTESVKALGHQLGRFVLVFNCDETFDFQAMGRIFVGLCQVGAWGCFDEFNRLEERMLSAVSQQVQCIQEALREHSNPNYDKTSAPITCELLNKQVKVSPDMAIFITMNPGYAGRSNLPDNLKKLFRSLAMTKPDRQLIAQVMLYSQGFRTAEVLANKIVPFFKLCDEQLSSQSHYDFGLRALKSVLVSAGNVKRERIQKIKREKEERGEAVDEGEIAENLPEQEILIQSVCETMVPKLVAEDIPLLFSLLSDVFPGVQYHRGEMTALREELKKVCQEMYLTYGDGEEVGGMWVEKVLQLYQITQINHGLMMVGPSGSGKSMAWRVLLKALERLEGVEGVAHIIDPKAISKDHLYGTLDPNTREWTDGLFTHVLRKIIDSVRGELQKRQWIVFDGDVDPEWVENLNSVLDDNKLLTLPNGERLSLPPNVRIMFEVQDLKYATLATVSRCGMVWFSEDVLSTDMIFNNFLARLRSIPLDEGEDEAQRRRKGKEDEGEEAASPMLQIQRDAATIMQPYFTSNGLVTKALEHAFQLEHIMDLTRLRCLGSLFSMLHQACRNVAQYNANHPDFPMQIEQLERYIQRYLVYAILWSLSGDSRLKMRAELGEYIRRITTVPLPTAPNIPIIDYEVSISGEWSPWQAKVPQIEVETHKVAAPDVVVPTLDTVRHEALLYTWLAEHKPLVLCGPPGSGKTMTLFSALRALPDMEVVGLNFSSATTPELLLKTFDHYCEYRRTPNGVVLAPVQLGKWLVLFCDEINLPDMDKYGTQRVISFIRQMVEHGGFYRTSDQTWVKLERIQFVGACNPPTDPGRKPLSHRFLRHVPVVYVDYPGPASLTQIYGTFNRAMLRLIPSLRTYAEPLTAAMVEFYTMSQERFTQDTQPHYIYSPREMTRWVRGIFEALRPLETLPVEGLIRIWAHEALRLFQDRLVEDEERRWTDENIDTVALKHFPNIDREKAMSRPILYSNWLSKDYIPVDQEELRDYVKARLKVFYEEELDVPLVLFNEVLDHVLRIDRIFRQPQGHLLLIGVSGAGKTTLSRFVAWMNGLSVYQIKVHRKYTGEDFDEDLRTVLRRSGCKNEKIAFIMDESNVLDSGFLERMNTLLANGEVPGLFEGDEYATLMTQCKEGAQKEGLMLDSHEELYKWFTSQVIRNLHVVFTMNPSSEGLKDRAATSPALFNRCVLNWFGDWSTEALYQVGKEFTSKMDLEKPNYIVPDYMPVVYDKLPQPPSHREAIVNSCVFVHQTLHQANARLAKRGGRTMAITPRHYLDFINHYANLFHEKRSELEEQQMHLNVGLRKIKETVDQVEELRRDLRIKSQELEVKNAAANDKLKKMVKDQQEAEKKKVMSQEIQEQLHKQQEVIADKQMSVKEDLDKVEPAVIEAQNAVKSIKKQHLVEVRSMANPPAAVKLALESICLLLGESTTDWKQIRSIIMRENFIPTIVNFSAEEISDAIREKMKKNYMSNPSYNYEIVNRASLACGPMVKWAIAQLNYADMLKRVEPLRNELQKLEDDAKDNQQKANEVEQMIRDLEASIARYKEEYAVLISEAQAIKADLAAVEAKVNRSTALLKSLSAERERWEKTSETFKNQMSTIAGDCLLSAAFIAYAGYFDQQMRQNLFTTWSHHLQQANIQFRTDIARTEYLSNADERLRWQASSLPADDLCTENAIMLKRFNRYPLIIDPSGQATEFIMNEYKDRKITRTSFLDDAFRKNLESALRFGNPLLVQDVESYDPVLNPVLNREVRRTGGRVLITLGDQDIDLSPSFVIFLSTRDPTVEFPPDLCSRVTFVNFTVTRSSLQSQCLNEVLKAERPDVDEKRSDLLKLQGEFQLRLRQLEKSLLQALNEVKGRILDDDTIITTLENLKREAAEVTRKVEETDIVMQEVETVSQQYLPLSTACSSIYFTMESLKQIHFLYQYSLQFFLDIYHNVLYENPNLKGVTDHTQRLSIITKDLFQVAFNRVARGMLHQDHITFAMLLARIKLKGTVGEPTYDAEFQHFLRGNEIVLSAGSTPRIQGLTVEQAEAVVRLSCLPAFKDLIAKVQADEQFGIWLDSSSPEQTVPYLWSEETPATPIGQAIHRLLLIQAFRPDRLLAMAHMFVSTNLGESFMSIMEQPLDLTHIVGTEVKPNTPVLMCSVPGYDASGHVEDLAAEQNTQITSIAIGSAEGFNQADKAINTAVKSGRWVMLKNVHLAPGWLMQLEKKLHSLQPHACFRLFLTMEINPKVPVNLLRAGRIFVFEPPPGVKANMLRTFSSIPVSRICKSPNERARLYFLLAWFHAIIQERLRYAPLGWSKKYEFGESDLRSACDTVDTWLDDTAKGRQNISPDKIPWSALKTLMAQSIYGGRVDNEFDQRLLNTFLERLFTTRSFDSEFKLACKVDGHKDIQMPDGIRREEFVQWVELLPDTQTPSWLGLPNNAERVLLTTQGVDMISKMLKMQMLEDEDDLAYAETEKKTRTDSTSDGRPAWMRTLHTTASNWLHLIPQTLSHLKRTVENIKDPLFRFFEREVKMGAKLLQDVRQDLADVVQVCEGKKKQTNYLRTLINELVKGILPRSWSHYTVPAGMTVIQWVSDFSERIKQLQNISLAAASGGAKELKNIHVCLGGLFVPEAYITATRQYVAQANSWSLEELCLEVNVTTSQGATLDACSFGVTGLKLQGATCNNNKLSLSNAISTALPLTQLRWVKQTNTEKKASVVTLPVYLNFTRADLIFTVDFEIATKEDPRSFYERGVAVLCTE

B1: full-length DCX with a C-terminal ybbR-tag (DCX-ybbR) (natural protein)
chain: MELDFGHFDERDKTSRNMRGSRMNGLPSPTHSAHCSFYRTRTLQALSNEKKAKKVRFYRNGDRYFKGIVYAVSSDRFRSFDALLADLTRSLSDNINLPQGVRYIYTIDGSRKIGSMDELEEGESYVCSSDNFFKKVEYTKNVNPNWSVNVKTSANMKAPQSLASSNSAQARENKDFVRPKLVTIIRSGVKPRKAVRVLLNKKTAHSFEQVLTDITEAIKLETGVVKKLYTLDGKQVTCLHDFFGDDDVFIACGPEKFRYAQDDFSLDENECRVMKGNPSATAGPKASPTPQKTSAKSPGPMRRSKSPADSGNDQDANGTSSSQLSTPKSKQSPISTPTSPGSLRKHKDLYLPLSLDDSDSLGDSM
modifications: CoA-CF488 or CoA-JF549 on the ybbR-tag
In turn, B1 had a velocity of DDJ motor complexes on MTs with 10 nM DCX (DDJ only: 0.76 [0.65, 0.89] µm/s) in assay [1] of 0.62 µm/s.

B2: N-DCX with a C-terminal ybbR-tag (N-DCX-ybbR) (domain or fragment)
chain: MELDFGHFDERDKTSRNMRGSRMNGLPSPTHSAHCSFYRTRTLQALSNEKKAKKVRFYRNGDRYFKGIVYAVSSDRFRSFDALLADLTRSLSDNINLPQGVRYIYTIDGSRKIGSMDELEEGESYVCSSDNFFKKVEYTKNVNPNWSVNVKTSANMKAPQSLASSNSAQARENKDFVRPKLVTIIRSGVKPRKAVRVLLNKKTAHSFEQVLTDITEAIKLETGVVKKLYTLDGKQVTCLHDFFGDDDVFIACGPEKFRYAQDDFSLDENE
modifications: CoA-CF488 or CoA-JF549 on the ybbR-tag
With B2, in assay [1], the velocity of DDJ motor complexes on MTs with 10 nM N-DCX (DDJ only: 0.76 [0.65, 0.89] µm/s) was found to be 0.54 µm/s. In addition, the velocity of MT gliding powered by surface-bound single-headed dynein with 10 nM N-DCX, not significantly changed (without N-DCX: 0.59 [0.56, 0.63] µm/s) in assay [2] was 0.58 µm/s.

B3: mouse JIP3 (amino acids 1-240; cloned as 3-240) with C-terminal HaloTag (domain or fragment)
chain: EIQMDEGGGVVVYQDDYCSGSVMSERVSGLAGSIYREFERLIHCYDEEVVKELMPLVVNVLENLDSVLSENQEHEVELELLREDNEQLLTQYEREKALRKQAEEKFIEFEDALEQEKKELQIQVEHYEFQTRQLELKAKNYADQISRLEERESEMKKEYNALHQRHTEMIQTYVEHIERSKMQQVGGSGQTESSLPGRSRKERPTSLNVFPLADGMVRAQMGGKLVPAGDHWHLSDLG
modifications: Halo-JF646 on the HaloTag
For B3, in assay [3], the dwell time of JIP3 on dynein is 0.42 s.

(Values after PMC9799976.)
